The text below walks through data of article PMC10624894 (Nature Communications, 2023).

The test concerns the target EA1ΔD6 (Bacillus anthracis (strain 7702), UniProt P94217, biotin (EZ-Link NHS-PEG4-Biotin) in the BLI experiment only). Put plainly: BLI; […] (3 µg/ml) […]; room temperature; […]. As to conditions: both partners purified.

B1: Nb^633 (VHH)
VHH: QVQLVESGGGLVQAGASLRLSCAASGRTFSSYAMGWFRQAPGKEREFVAAISPLGQTTYYTDSVKGRFTISRDNAKNTLYLQMNSLKPEDTAVYYCAQGSLSEVRLGKSTYWGQGTQVTVSS
notes: also called nanobody 633; source: E. coli WK6, periplasmic expression, purified (SEC as the final step)
Consider B1, for which the dissociation constant Kd (as a rule, the constant that tells how readily two partners part at equilibrium) was determined as 13 nM.

B2: Nb^632 (VHH)
VHH: QVQLVESGGGLVQAGGSLRLSCVASGGTFSNYGMGWFRQAPGKEREFVAAVRWSGDSTYYSDSVKGRFTISRDNAKNTVYLQMNGLKPEDTAVYYCARRLNWRFISNWDKESEYAYWGQGTQVTVSS
notes: also called nanobody 632; source: E. coli WK6, periplasmic expression, purified (SEC as the final step)
The molecule B2 yielded an equilibrium dissociation constant (Kd) of 2.2 nM.

B3: Nb^643 (VHH)
VHH: QVQLVESGGGLVQPGGSLRLSCAASGIAFSRNAVGWYRQAPGKQRELVARSNTVGATNYADSVKGRFTISRDNDKSTVYLQMNSLKPEDTAVYYCNIYLYGDRTGSTLNSWGQGTQVTVSS
notes: also called nanobody 643; source: E. coli WK6, periplasmic expression, purified (SEC as the final step)
As to B3, the Kd was 1.9 nM.
